Molecular target: T1, DdaA (Ab) (Acinetobacter baumannii ATCC 17978, UniProt V5VBS3 1-335)
T1 sequence: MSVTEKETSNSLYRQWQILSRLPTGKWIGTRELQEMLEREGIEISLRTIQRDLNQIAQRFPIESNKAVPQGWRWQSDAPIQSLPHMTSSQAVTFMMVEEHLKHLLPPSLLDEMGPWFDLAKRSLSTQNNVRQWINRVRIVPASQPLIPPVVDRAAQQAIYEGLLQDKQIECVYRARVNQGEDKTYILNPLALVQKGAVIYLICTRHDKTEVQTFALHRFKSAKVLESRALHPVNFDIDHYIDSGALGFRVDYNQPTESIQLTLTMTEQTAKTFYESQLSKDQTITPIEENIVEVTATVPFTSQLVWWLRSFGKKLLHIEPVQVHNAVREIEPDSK
Assay: EMSA

B1: recA promoter WT (FAM-AR-DDRM) (dsDNA)
DNA 1: TTTCCGGTCTGGGCGACACAATATGACGTGTAATTTTAACC
DNA 2: GGTTAAAATTACACGTCATATTGTGTCGCCCAGACCGGAAA
binding result: binds

Reference: PMC12392091
